# Measurements taken from US20040132073A1 (Takeda / Millennium, published 2004).
# Ends that are not written are not given here.
# Key:
# [1] = biological target: human G protein-coupled receptor protein hOT7T022 (human, UniProt Q9GZQ6 1-430); assay: cell-based or functional assay
# [2] = biological target: rat G protein-coupled receptor protein rOT7T022L (rat, UniProt Q9EP86 1-432); assay: cell-based or functional assay
# Sequence of rat G protein-coupled receptor protein rOT7T022L (Q9EP86 whole entry): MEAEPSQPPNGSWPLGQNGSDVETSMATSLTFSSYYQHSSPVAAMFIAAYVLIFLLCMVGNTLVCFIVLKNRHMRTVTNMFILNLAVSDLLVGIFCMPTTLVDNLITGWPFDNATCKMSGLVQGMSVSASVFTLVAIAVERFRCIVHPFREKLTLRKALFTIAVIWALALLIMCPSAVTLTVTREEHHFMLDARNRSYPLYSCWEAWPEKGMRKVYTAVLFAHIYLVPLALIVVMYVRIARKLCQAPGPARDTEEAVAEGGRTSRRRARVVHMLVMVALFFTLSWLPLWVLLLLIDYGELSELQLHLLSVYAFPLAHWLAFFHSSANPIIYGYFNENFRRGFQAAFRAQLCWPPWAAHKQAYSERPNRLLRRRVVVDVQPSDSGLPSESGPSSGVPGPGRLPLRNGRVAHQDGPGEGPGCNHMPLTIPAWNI
# Sequence of human G protein-coupled receptor protein hOT7T022 (Q9GZQ6 whole entry): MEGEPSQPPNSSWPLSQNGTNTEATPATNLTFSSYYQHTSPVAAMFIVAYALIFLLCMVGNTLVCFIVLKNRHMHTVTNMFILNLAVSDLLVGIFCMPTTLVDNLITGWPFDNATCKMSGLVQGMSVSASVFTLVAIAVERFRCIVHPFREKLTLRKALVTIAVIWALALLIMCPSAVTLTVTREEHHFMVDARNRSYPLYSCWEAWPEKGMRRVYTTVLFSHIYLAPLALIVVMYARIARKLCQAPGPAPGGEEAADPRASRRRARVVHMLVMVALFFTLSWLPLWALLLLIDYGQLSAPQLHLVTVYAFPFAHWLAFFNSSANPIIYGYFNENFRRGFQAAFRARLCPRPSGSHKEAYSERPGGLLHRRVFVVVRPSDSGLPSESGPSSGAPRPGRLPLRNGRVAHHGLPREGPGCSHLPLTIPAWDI
Binder,"ED50, inhibition of the increased cAMP level in the cells by the forskolin treatment [1] [nM]","IC50 of cAMP production suppression (forskolin-stimulated cells, cAMP EIA) [2] [nM]"
SLNFEELKDWGPKNVIKMSTPAVNKMPHSFANLPLRF-NH2 [hRFRP-1-37 (peptide having the 56 (Ser) to 92 (Phe) amino acid sequence in SEQ ID NO: 1)],21,
PQRF-NH2 [PQRFamide (peptide shown by Pro-Gln-Arg-Phe-NH2)],≥ 1000,

# Further lines, results first:
"ED50, inhibition of the increased cAMP level in the cells by the forskolin treatment [1] [nM]","IC50 of cAMP production suppression (forskolin-stimulated cells, cAMP EIA) [2] [nM]",Binder
30,,SVTFQELKDWGAKKDIKMSPAPANKVPHSAANLPLRF (ends and bridges not checked) [rRFRP-1-37 (peptide having the 58 (Ser) to 94 (Phe) amino acid sequence in SEQ ID NO: 50)]
4.5,0.5,MPHSFANLPLRF-NH2 [peptide MPHSFANLPLRFamide (SEQ ID NO: 39)]
